Assay results taken from patent publication US20220153862A1 (CSPC MEGALITH BIOPHARMACEUTICAL, published 2022).

T1: human Trophoblast cell surface antigen 2 (TROP2) (human, UniProt P09758 27-274, limits assumed)
T1 construct: Analyte in the SPR experiments and immunogen; also called human TROP2
T1 sequence: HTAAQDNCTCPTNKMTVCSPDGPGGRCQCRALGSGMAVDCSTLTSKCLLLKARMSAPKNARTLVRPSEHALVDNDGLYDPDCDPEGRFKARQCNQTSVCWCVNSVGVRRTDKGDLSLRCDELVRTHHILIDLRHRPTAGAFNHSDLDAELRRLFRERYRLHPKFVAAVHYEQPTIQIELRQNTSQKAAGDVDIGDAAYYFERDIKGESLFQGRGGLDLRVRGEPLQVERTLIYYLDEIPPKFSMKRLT

T2: TROP2 expressed on human cancer cell lines (human, UniProt P09758 27-323)
T2 sequence: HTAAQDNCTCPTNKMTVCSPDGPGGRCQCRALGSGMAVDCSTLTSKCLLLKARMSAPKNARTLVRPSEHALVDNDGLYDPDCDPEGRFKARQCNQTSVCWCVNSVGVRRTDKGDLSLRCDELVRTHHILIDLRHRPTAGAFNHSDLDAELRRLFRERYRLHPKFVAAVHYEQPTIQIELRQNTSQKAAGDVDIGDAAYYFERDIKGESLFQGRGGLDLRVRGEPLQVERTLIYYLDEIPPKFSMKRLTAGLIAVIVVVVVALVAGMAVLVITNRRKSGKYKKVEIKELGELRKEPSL

B1: biosimilar of the anti-TROP2 antibody sacituzumab (antibody, INN chains, looked up, V domains shown)
VH: QVQLQQSGSELKKPGASVKVSCKASGYTFTNYGMNWVKQAPGQGLKWMGWINTYTGEPTYTDDFKGRFAFSLDTSVSTAYLQISSLKADDTAVYFCARGGFGSSYWYFDVWGQGSLVTVSS
VL: DIQLTQSPSSLSASVGDRVSITCKASQDVSIAVAWYQQKPGKAPKLLIYSASYRYTGVPDRFSGSGSGTDFTLTISSLQPEDFAVYYCQQHYITPLTFGAGTKVEIKR
modifications: biosimilar
B2: HC1/LC5 (antibody, human IgG1, kappa, V domains shown)
VH: QVQLVQSGAEVKKPGASVKVSCKASGYTFTDYSINWVRQAPGQGLEWMGVISTYYGDASYNQKFKGRVTMTTDTSTSTAYMELRSLRSDDTAVYYCARYGDGYNQFDYWGQGTMVTVSS
VL: DIQMTQSPSSLSASVGDRVTITCRVSESVDSYGNNFMHWYQQKPGKAPKLLIYRASNLESGVPSRFSGSGSGTDFTFTISSLQPEDIATYYCQQSYEDPYTFGGGTKLEIKR
notes: Humanized anti-TROP2 antibody; also called DP002-HC1LC5
B3: HC1/LC1 (antibody, human IgG1, kappa, V domains shown)
VH: QVQLVQSGAEVKKPGASVKVSCKASGYTFTDYSINWVRQAPGQGLEWMGVISTYYGDASYNQKFKGRVTMTTDTSTSTAYMELRSLRSDDTAVYYCARYGDGYNQFDYWGQGTMVTVSS
VL: DIVMTQSPDSLAVSLGERATINCRVSESVDSYGNNFMHWYQQKPGQPPKLLIYRASNLESGVPDRFSGSGSGTDFTLTISSLQAEDVAVYYCQQSYEDPYTFGQGTKLEIKR
notes: Humanized anti-TROP2 antibody; also called DP002-HC1LC1
B4: HC4/LC5 (antibody, human IgG1, kappa, V domains shown)
VH: QVQLVQSGAEVKKPGSSVKVSCKASGYTFTDYSINWVRQAPGQGLEWMGVISTYYGDASYNQKFKGRVTITADESTSTAYMELSSLRSEDTAVYYCARYGDGYNQFDYWGQGTLVTVSS
VL: DIQMTQSPSSLSASVGDRVTITCRVSESVDSYGNNFMHWYQQKPGKAPKLLIYRASNLESGVPSRFSGSGSGTDFTFTISSLQPEDIATYYCQQSYEDPYTFGGGTKLEIKR
notes: Humanized anti-TROP2 antibody; also called DP002-HC4LC5; DP002HC4LC5
B5: anti-TROP2 antibody 1B3 (antibody, V domains shown)
VH: QVQLQQSGAELVRPGVSVKISCKGSGYTFTDYSINWVKQSHAKSLEWIGVISTYYGDASYNQKFKGKATMTVDKSSSTAYMELARLTSEDSAIYYCARYGDGYNQFDYWGQGTTLTVSS
VL: DIVLTQSPASLAVSLGQRATISCRVSESVDSYGNNFMHWYQQKPGQPPKLLIYRASNLESGVPARFSGSGSGTDFTLTINPMEADDVATYYCQQSYEDPYTFGGGTKLEIK
notes: Mouse anti-human TROP2 hybridoma antibody
B6: anti-TROP2 antibody 17B6 (antibody, V domains shown)
VH: QVQLQQSGAELVRPGVSVKISCKGSGYTFTDYGMNWVKQSHAKSLEWIGVISTFYGDANYNQKFKGKATMTVDKSSSTAYMELARLTSEDSAIYYCARRGNYDSMDYWGQGTSVTVSS
VL: DIVLTQSPVFLAVSLGQRATISCRASESVDSYGNSFMHWYQQKPGQPPKLLIYRASNLESGIPARFSGSGSRTDFTLTINPVEADDVETYYCQQSYEDPPTFGGGTKLEIE
notes: as for B5
B7: anti-TROP2 antibody 15D9 (antibody, V domains shown)
VH: QVQLQQSGAELVRPGVSVKISCKGSGYTFTDYSIHWVKQSHAKSLEWIGVISSYYGDATYNQKFKGKATMTVDKSSSTAYMELARLTSEDSAIYYCALLGAYNYFDYWGQGTTLTVSS
VL: DIVLTQSPASLAVSLGQRATISCRASESVDSYGNSFMHWYQQKPGQPPKLLVYRASNLESGIPARFSGSGSRTDFTLTINPVEADDVATYYCQQSYEDPPTFGGGTKLEIK
notes: as for B5
B8: anti-TROP2 antibody 15A10 (antibody, V domains shown)
VH: EVQLEQSGPGLVQPSQSLSITCTVSGFSLTRYGVHWVRQSPGRSLEWLGVIWSGGNTDYNAAFISRLTITKDNSKSQVFFKMNSLQPNDTGVYYCAREDRYVGEFAYWGQGTLVTVSA
VL: DIVLTQSTASLAVSLGQRATISCRASESVDSYGNSFIHWYQQKPGQPPKLLIYRASNLESGIPARFSGSGSRTDFTLTINPVEADDVATYYCQQSNEDPRTFGGGTKLEIK
notes: as for B5
B9: anti-TROP2 antibody 17D1 (antibody, V domains shown)
VH: QVQLQQSGAELVRPGVSVKISCKGSGYTFTDYSIHWVKQSHAKSLEWIGLISTYYGDATYTQKFKGKATMTVDKSSSTAYMELARLTSEDSAIYYCALLGAYNYFDYWGQGTTLTVSS
VL: DIVLTQSPASLAVSLGQRATISCRASESVDSYGNSFMHWYQQKPGQPPKLLVYRASNLESGIPARFSGSGSRTDFTLTINPVEADDIATYYCQQSYEDPPTFGGGTKLEIK
notes: as for B5
B10: HC5/LC1 (antibody, human IgG1, kappa, V domains shown)
VH: EVQLVQSGAEVKKPGESLKISCKGSGYTFTDYSINWVRQMPGKGLEWMGVISTYYGDASYNQKFKGQVTISADKSISTAYLQWSSLKASDTAMYYCARYGDGYNQFDYWGQGTLVTVSS
VL: DIVMTQSPDSLAVSLGERATINCRVSESVDSYGNNFMHWYQQKPGQPPKLLIYRASNLESGVPDRFSGSGSGTDFTLTISSLQAEDVAVYYCQQSYEDPYTFGQGTKLEIKR
notes: Humanized anti-TROP2 antibody
B11: HC5/LC4 (antibody, human IgG1, kappa, V domains shown)
VH: EVQLVQSGAEVKKPGESLKISCKGSGYTFTDYSINWVRQMPGKGLEWMGVISTYYGDASYNQKFKGQVTISADKSISTAYLQWSSLKASDTAMYYCARYGDGYNQFDYWGQGTLVTVSS
VL: EIVLTQSPATLSLSPGERATLSCRVSESVDSYGNNFMHWYQQKPGQAPRLLIYRASNLESGIPARFSGSGSGTDFTLTISSLEPEDFAVYYCQQSYEDPYTFGGGTKVEIKR
notes: Humanized anti-TROP2 antibody

Assays:
[1] = molecular target: human Trophoblast cell surface antigen 2 (TROP2) (human) (UniProt P09758); test: SPR, TROP2 as analyte
[2] = molecular target: T1, human Trophoblast cell surface antigen …; test: SPR, TROP2 as analyte
[3] = molecular target: T1, human Trophoblast cell surface antigen …; test: SPR affinity ranking, human TROP2
[4] = molecular target: T2, TROP2 expressed on human cancer cell …; test: cell-based or functional assay
[5] = molecular target: T2, TROP2 expressed on human cancer cell …; test: cell-based or functional assay; remark: listed apart in the source
[6] = molecular target: T2, TROP2 expressed on human cancer cell …; test: flow cytometry of SKBR3 cells after overnight incubation with the antibody pre-mixed with pHAb-labelled secondary antibody (internalization assay); x axis pHAb-A, y axis Count
Procedure: FACS experiments were performed to verify that antibodies 1B3, 15D9, 15A10, 17B6, and 17D1 were internalized by SKBR3 cells. SKBR3 is a TROP2-expressing human breast carcinoma cell line. Briefly, 1.2×10⁵ SKBR3 cells were seeded into each 12-well plates and cultured overnight. 300 μL of 20 nM control antibody, 1B3, 15D9, 15A10, 17B6, or 17D1 (in DMEM-10) were mixed with 300 μL 60 nM pHAb-labelled secondary antibody for 15 minutes at room temperature in the dark. The labeled antibodies mixtures were added to the SKBR3 cells and incubated overnight. Following overnight incubation, the SKBR3 cells were trypsinized, washed twice with 1% BSA/PBS, and analyzed via flow cytometry.

Binder | Kd [3] [nM] | koff [3] [s⁻¹] | kon [3] [M⁻¹ s⁻¹] | binding result [6] | further results
B1 |  |  |  |  | Kd [1]: 0.4 nM; koff [1]: 0.000204 s⁻¹; kon [1]: 511000 M⁻¹ s⁻¹
B2 | 0.107 | 0.000149 | 1.39e+06 |  | Kd [2]: 0.0577 nM; koff [2]: 0.000104 s⁻¹; kon [2]: 1.81e+06 M⁻¹ s⁻¹
B3 | 0.0645 | 0.000105 | 1.63e+06 |  | IC50 (nM), in vitro cytotoxicity, HCC38 cells [4]: > 100 nM; IC50 (nM), in vitro cytotoxicity, MDA-MB-468 cells [4]: > 100 nM; Kd [2]: 0.0662 nM; koff [2]: 0.00013 s⁻¹; kon [2]: 1.97e+06 M⁻¹ s⁻¹
B4 | 0.0801 | 0.000138 | 1.72e+06 |  | IC50 (nM), in vitro cytotoxicity, BxPC-3 cells [5]: > 100 nM; IC50 (nM), in vitro cytotoxicity, HCC1954 cells [5]: > 100 nM; IC50 (nM), in vitro cytotoxicity, NCI-N87 cells [5]: > 100 nM; Kd [2]: 0.0184 nM; koff [2]: 4.05e-05 s⁻¹; kon [2]: 2.2e+06 M⁻¹ s⁻¹
B5 |  |  |  | binds | 
B6 |  |  |  | binds | 
B7 |  |  |  | binds | 
B8 |  |  |  | binds | 
B9 |  |  |  | binds | 
B10 | 0.147 | 0.000235 | 1.6e+06 |  | 
B11 | 0.22 | 0.000299 | 1.36e+06 |  | 
